# In the supplement of paper PMC11316812:
# ± gives the standard deviation of the averaged measurements.
# Legend:
# [1] = system: MCF7; experiment: percentage of EdU-negative (G0-arrested) nuclei per well, 72 h; higher = more G0 arrest; conditions: reference: sequence is the full UniProt precursor, the tested protein was the secreted form or ectodomain
# [2] = system: hTERT-HMEC; experiment: as above; conditions: reference: sequence is the full UniProt precursor, the tested protein was the secreted form or ectodomain
# [3] = protein concentration 0.02775 µM
# [4] = protein concentration 0.2775 µM
# [5] = protein concentration 0.03125 µM
# [6] = protein concentration 0.3125 µM
# [7] = protein concentration 0.0111429 µM
# [8] = protein concentration 0.111429 µM
# [9] = protein concentration 0.0225 µM
# [10] = protein concentration 0.018845 µM
# [11] = protein concentration 0.18845 µM
# 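Note: secreted proteins added to cultured cells, EdU pulse at the end, nuclei found by Hoechst imaging, EdU status from nuclear versus surrounding ring intensity ratio, PBS as neutral control.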
sequence,measurement,setting,value
MRFFCARCCSFGPEMPAVQLLLLACLVWDVGARTAQLRKANDQSGRCQYTFSVASPNESSCPEQSQAMSVIHNLQRDSSTQRLDLEATKARLSSLESLLHQLTLDQAARPQETQEGLQRELGTLRRERDQLETQTRELETAYSNLLRDKSVLEEEKKRLRQENENLARRLESSSQEVARLRRGQCPQTRDTARAVPPGSREVSTWNLDTLAFQELKSELTEVPASRILKESPSGYLRSGEGDTGCGELVWVGEPLTLRTAETITGKYGVWMRDPKPTYPYTQETTWRIDTVGTDVRQVFEYDLISQFMQGYPSKVHILPRPLESTGAVVYSGSLYFQGAESRTVIRYELNTETVKAEKEIPGAGYHGQFPYSWGGYTDIDLAVDEAGLWVIYSTDEAKGAIVLSKLNPENLELEQTWETNIRKQSVANAFIICGTLYTVSSYTSADATVNFAYDTGTGISKTLTIPFKNRYKYSSMIDYNPLEKKLFAWDNLNMVTYDIKLSKM,percentage of EdU-negative,[1]; [3],23.1 ± 3.6%
same,percentage of EdU-negative,[1]; [4],22.8 ± 0.49%
same,percentage of EdU-negative,[2]; [3],5.22 ± 0.79%
same,percentage of EdU-negative,[2]; [4],5.83 ± 0.68%
MFIKVMFGAGCSVLVNTSCRLVNLTAHLRQKAGLPPDATIALLAEDGNLVSLEEDLKEGASRAQTMGNSLLKERAIYVLVRIIKGEDMASTRYESLLENLDDHYPELAEELRRLSGLSSVGHNWRKRMGTRRGRHEQSPTSRPRKGPD [Q8WYQ4],percentage of EdU-negative,[1]; [5],28 ± 1.6%
same,percentage of EdU-negative,[1]; [6],25.79 ± 0.035%
same,percentage of EdU-negative,[2]; [5],5.45 ± 0.84%
same,percentage of EdU-negative,[2]; [6],5.68 ± 0.37%
MRKELQLSLSVTLLLVCGFLYQFTLKSSCLFCLPSFKSHQGLEALLSHRRGIVFLETSERMEPPHLVSCSVESAAKIYPEWPVVFFMKGLTDSTPMPSNSTYPAFSFLSAIDNVFLFPLDMKRLLEDTPLFSWYNQINASAERNWLHISSDASRLAIIWKYGGIYMDTDVISIRPIPEENFLAAQASRYSSNGIFGFLPHHPFLWECMENFVEHYNSAIWGNQGPELMTRMLRVWCKLEDFQEVSDLRCLNISFLHPQRFYPISYREWRRYYEVWDTEPSFNVSYALHLWNHMNQEGRAVIRGSNTLVENLYRKHCPRTYRDLIKGPEGSVTGELGPGNK [Q9UNA3],percentage of EdU-negative,[1]; [7],26.4 ± 0.46%
same,percentage of EdU-negative,[1]; [8],27.4 ± 2.4%
same,percentage of EdU-negative,[2]; [7],4.541 ± 0.041%
same,percentage of EdU-negative,[2]; [8],5.48 ± 1.1%
MLPAAMKGLGLALLAVLLCSAPAHGLWCQDCTLTTNSSHCTPKQCQPSDTVCASVRITDPSSSRKDHSVNKMCASSCDFVKRHFFSDYLMGFINSGILKVDVDCCEKDLCNGAAGAGHSPWALAGGLLLSLGPALLWAGP,percentage of EdU-negative,[1]; [9],25.6 ± 3.3%
same,percentage of EdU-negative,[1]; protein concentration 0.225 µM,26.7 ± 1.4%
same,percentage of EdU-negative,[2]; [9],4.57 ± 0.15%
same,percentage of EdU-negative,[2]; protein concentration 0.225 µM,5.48 ± 0.5%
MRGAARAAWGRAGQPWPRPPAPGPPPPPLPLLLLLLAGLLGGAGAQYSSDRCSWKGSGLTHEAHRKEVEQVYLRCAAGAVEWMYPTGALIVNLRPNTFSPARHLTVCIRSFTDSSGANIYLEKTGELRLLVPDGDGRPGRVQCFGLEQGGLFVEATPQQDIGRRTTGFQYELVRRHRASDLHELSAPCRPCSDTEVLLAVCTSDFAVRGSIQQVTHEPERQDSAIHLRVSRLYRQKSRVFEPVPEGDGHWQGRVRTLLECGVRPGHGDFLFTGHMHFGEARLGCAPRFKDFQRMYRDAQERGLNPCEVGTD [Q641Q3],percentage of EdU-negative,[1]; [10],26.1 ± 2.3%
same,percentage of EdU-negative,[1]; [11],35.6 ± 1.1%
same,percentage of EdU-negative,[2]; [10],5.45 ± 1.1%
same,percentage of EdU-negative,[2]; [11],18.2 ± 6%
MTPHRLLPPLLLLLALLLAASPGGALARCPGCGQGVQAGCPGGCVEEEDGGSPAEGCAEAEGCLRREGQECGVYTPNCAPGLQCHPPKDDEAPLRALLLGRGRCLPARAPAVAEENPKESKPQAGTARPQDVNRRDQQRNPGTSTTPSQPNSAGVQDTEMGPCRRHLDSVLQQLQTEVYRGAQTLYVPNCDHRGFYRKRQCRSSQGQRRGPCWCVDRMGKSLPGSPDGNGSSSCPTGSSG,percentage of EdU-negative,[1]; [5],25 ± 1.6%
same,percentage of EdU-negative,[1]; [6],25.79 ± 0.037%
same,percentage of EdU-negative,[2]; [5],4.84 ± 0.44%
same,percentage of EdU-negative,[2]; [6],5.17 ± 1%
